T1: human FcRH5 (Homo sapiens, UniProt Q96RD9)
T1 construct: expressed in transfected cells; host or cells: OPM2 multiple myeloma line per text
T1 sequence (Q96RD9 16-977 Y267H/G418D/V466I/L733P/S890P): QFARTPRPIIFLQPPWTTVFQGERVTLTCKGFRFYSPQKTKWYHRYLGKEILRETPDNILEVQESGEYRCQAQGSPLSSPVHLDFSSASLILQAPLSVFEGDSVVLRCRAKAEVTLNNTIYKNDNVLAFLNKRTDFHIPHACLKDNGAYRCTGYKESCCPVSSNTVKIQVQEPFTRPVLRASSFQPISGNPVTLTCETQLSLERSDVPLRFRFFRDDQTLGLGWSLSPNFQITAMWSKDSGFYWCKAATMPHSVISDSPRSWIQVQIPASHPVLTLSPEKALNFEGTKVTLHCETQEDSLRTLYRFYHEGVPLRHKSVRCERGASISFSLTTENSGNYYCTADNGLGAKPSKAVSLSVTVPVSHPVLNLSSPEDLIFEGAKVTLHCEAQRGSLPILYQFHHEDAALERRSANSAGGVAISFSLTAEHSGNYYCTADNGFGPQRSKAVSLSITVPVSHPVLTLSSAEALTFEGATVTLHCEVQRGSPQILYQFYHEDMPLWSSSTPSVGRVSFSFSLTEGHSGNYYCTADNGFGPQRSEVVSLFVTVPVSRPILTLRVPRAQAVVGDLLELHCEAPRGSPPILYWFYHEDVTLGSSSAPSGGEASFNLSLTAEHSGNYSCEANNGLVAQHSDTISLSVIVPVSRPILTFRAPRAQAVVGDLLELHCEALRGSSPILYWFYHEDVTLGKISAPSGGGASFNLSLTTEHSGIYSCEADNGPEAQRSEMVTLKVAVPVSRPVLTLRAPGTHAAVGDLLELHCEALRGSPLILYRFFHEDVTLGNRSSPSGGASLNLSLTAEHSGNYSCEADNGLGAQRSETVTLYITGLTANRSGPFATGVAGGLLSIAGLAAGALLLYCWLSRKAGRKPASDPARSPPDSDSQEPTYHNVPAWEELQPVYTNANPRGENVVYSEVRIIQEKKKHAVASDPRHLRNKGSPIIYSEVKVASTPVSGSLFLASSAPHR


Experiments:
human FcRH5 = target: T1, human FcRH5; test: Affinity determination (Scatchard analysis), cells expressing human FcRH5; format: binding; conditions: FACS and Scatchard analysis
Description: To further determine binding of the FcRH5 murine antibodies and IgG clones, binding of iodinated IgG variants to OPM2 cells expressing human FcRH5 and SVT2 cells expressing cynomologous FcRH5, Scatchard analysis was performed (Table 9A).
After a four hour incubation at 4° C., cells were washed and cell pellet counts were read by a gamma counter (1470 WIZARD Automatic Gamma Counter; Perkin Elmer, Walthem, Mass.). All points were done in triplicate and counted for 10 minutes. The average CPM was used for Kd calculation using the New Ligand (Genentech, South San Francisco, Calif.) program.

cynomolgus FcRH5 = test: Cyno X-reactivity (FACS) on stable transfected cells; format: binding; conditions: SVT2 cells stably expressing cynoFcRH5; 1.0, 0.1 or 0.01 ug Ab per million cells
cynomolgus FcRH5, sequence (as listed by the source): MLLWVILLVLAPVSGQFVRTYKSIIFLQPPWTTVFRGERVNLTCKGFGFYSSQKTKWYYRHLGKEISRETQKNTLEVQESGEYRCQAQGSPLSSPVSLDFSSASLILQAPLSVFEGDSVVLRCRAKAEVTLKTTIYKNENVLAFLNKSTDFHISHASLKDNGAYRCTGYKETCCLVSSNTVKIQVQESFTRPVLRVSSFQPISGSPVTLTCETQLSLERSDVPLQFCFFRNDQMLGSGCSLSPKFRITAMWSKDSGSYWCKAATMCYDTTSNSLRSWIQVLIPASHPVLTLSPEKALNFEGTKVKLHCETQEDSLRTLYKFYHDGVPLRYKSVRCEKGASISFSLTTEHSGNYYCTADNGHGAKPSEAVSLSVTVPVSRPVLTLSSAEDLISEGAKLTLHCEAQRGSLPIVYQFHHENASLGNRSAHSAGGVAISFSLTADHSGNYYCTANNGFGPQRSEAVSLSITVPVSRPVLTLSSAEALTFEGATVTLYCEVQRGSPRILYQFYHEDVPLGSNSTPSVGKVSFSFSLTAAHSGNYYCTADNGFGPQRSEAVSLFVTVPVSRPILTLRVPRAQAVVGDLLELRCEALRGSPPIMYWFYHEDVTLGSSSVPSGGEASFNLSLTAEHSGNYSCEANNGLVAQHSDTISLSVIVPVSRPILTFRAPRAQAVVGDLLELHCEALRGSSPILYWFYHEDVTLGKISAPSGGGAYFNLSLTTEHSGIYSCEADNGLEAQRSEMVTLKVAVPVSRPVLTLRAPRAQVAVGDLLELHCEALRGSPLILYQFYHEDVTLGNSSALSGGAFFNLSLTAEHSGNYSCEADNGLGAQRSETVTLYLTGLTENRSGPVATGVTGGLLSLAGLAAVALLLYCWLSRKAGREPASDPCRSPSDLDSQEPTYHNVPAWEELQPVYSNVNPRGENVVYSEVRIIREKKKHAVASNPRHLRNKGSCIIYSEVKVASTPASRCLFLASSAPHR
Description: For additional FACS analysis of FcRH5 antibodies, 1.0 μg, 0.1 μg or 0.01 μg of antibody was titrated per million cells of BJAB cells stably expressing huFcRH5 and SVT2 cells stably expressing cynoFcRH5. Briefly, approximately 10^6 cells in 100 μl were incubated with varying amounts (1.0 ug, 01. ug or 0.01 ug) of murine Ab (‘mu1H4, mu4D10, mu6H1, mu7D11, mu9E2, mu10A8, mu140F5, or mu13G9) per million cells of BJAB cells stably expressing huFcRH5 and SVT2 cells stably expressing cynoFcRH5. Incubation with 1.0 ug/10^6 cells of the appropriate Mu IgG isotype control was used as a negative control. PE conjugated Rat anti-MuIgG1 or Rat anti-MuIgG2a+b was used as the secondary detection antibody.

Row | Binding to cells expressing FcRH5 compared with the chimera (human FcRH5) | Molecule | Cross reactivity with cynomolgus FcRH5 by FACS analysis (cynomolgus FcRH5)
1 | essentially equivalent to the chimera | hu13G9.1a: humanized 13G9 version 1; VL SEQ ID NO: 19, VH SEQ ID NO: 21 (antibody, V domains shown) VH: EVQLVQSGGGLVQPGGSLRLSCAASGYTFTNYGMNWVRQAPGKGLEWVGWVNTYTGEPTYTDDFKGRFTFSVDTSKSTVYLQMNSLRAEDTAVYYCARRSIPYYYAMDYWGQGTLVTVS VL: DIQMTQSPSSLSASVGDRVTITCKASQNVGSNVAWYQQKPGKAPKALIYSASYRYSGVPSRFSGSGSGTDFTLTISSLQPEDFATYYCQQYKTWTFGQGTKVEIKR | –
2 | – | 13G9: murine monoclonal antibody binding human FcRH5; variable chains SEQ ID NO: 18 and 20 (antibody, listed as Mus sp., V domains shown) VL: DIVMTQSQKIMSTSVGDRVNVTCKASQNVGSNVAWYHQKPGQSPKALIYSASYRYSGVPDRFTGSGSGTDFTLTISNVQSEDLAEYFCQQYKTWTFGGGTKLEIKR VH: EVQLVQSGPELKKPGETVKISCKASGYTFTNYGMNWVKQAPGKGLKWMGWVNTYTGEPTYTDDFKGRFAFSVETSASTVFLQINNLKNEDTATYFCARRSIPYYYAMDYWGQGTSLT | cross react with cynomolgus FcRH5
